Experimental data: paper PMC7918451

Experiments:
[1] = molecular target: T1, Interleukin-6 (IL-6) ((aptamer stated to be specific to mouse IL-6)) (UniProt P08505); assay: GFET (graphene field-effect transistor), Hill-Langmuir fit, n = 0.3; conditions: pH ~3.64, 2 mM MgCl2; 5' amine coupled to 1-pyrenebutyric acid NHS ester (5' pyrene); 0.01x PBS with 2 mM MgCl2, pH ~7.4 (or adjusted to ~3.64), 10 min exposure per concentration, temperature not stated; aptamer immobilized on graphene
T1 sequence: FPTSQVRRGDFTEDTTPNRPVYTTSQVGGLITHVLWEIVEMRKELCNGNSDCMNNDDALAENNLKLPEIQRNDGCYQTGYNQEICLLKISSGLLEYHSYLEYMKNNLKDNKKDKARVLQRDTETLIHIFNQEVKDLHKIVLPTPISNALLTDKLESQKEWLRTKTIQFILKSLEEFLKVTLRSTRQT

[2] = molecular target: T1, Interleukin-6 (IL-6) ((aptamer stated to be specific to mouse IL-6)); assay: manufacturer value; conditions: 5' amine; 0.01x PBS with 2 mM MgCl2, pH ~7.4 (or adjusted to ~3.64), 10 min exposure per concentration, temperature not stated; aptamer immobilized on graphene; cited from earlier work

## IL-6 aptamer ATW0077 (Base Pair Biotechnologies), pyrene-tagged (PTDA)
[1]
  Kd: 3.4 nM

## IL-6 aptamer ATW0077, as supplied (manufacturer Kd)
[2]
  Kd: 5.4 nM
